The assay concerns the target acetylcholine receptor. The assay is described as follows: SPR, receptor immobilised on chip, peptide at 10 uM. Background: SPR reads the build-up and loss of mass on a sensor chip optically.

In turn, RPNARR [6mer-2-949] came in with a Binding affinity (RU) of 39 RU.
The result for KKCERK [6mer-2-945] reads 42 RU; that for KYNKRR [6mer-2-950], 26 RU; that for KIDHRR [6mer-2-943], 41 RU.
Molecule RTSNKK [6mer-2-967] registered a Binding affinity (RU) of 35 RU.
The molecule KKSNRK [6mer-2-962] had a Binding affinity (RU) of 30 RU.
In the case of KNTKKR [6mer-2-961], the Binding affinity (RU) was 21 RU.
Consider KAKHRR [6mer-2-963], for which the Binding affinity (RU) was 37 RU.
In the case of RADEKK [6mer-2-951] it was 42 RU; in that of KCEDRK [6mer-2-964], 41 RU.
KTDKRK [6mer-2-942] registered a Binding affinity (RU) of 22 RU.
For RPPFRR [6mer-2-948], the Binding affinity (RU) turned out to be 28 RU.
The molecule KPCEKK [6mer-2-946] returned a Binding affinity (RU) of 21 RU.
For the molecule KESVKK [6mer-2-953], the Binding affinity (RU) was found to be 25 RU.
In the case of RTNARK [6mer-2-959] it was 35 RU; in that of RHWEKK [6mer-2-968], 39 RU; in that of KYWGRR [6mer-2-952], 24 RU.
In the case of KPEDKK [6mer-2-944] it was 35 RU; in that of KEDAKR [6mer-2-966], 41 RU.
As to KFCWRR [6mer-2-956], the Binding affinity (RU) was 28 RU.
Take RDCVKR [6mer-2-960]: the Binding affinity (RU) came out at 29 RU.
KPWFKR [6mer-2-965]: the Binding affinity (RU) was 36 RU.
KATHKR [6mer-2-969] returned a Binding affinity (RU) of 33 RU.
In the case of RMPERR [6mer-2-955], the Binding affinity (RU) is 29 RU.
Molecule KCTIRK [6mer-2-954] showed a Binding affinity (RU) of 32 RU.
With KTNWRK [6mer-2-947], the Binding affinity (RU) was 41 RU.
KFKARK [6mer-2-958] displayed a Binding affinity (RU) of 28 RU.
As for RDTHRR [6mer-2-957], the Binding affinity (RU) was determined as 40 RU.

Values taken from patent publication US20250011363A1, “OPTIMIZED SHORTENED PEPTIDE THAT BINDS TO ACETYLCHOLINE RECEPTOR, AND USE THEREOF” (SKINMED CO., LTD., priority 2021, published 2025).
